Measured values reported in a protein production outcome set (Wang et al. 2014).

Test: label from the status in PepcDB records
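Also: failed if final PepcDB status was selected cloned or expressed and not failed if soluble or beyond.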

MSLSRVTEIRYVGYGVKDFDAEKAFYADVWGLEPVGEDANNAWFKAQGADEHHVVQLRRADENRIDVIALAADSRSDVDALRASVEAAGCKVASEPAVLATPGGGYGFRFFSPDGLLFEVSSDVAKGAKRDLARWEGVPVKISHIVLHSPNHQDMVKFFTDVLGFKVSDWLGDFMCFLRCNSAHHRIAILPGPPCLNHVAYDMLSVDDMMRGAHRLKVKGIDIGWGPGRHTAGNNTFSYFVTPGGFVTEYTSELEEVDFDTHQYKVHVPAPMVMDQWGIGTGGPQTLPHPHANPGLFQTAEAEGHHHHHH
protein production: not failed

MFGRDGRLKESRVQKPERQQRLFGLSTPLRSAVIPPLSAARWLLVLIVAAGVYFFHGFLFPVLAALVIAFASWPLYQRLLAGVGGNRTIAATLAILFILAFLVIPIALAGTYAINEVREWVGWAIETNRHGAVTPHWIATMPVVGDWLNEQWTTNFGHPGGIGELIQLISGANIGSIYRGALAAGGSAFGLLLTLLFMMIALFFAYRDGEHFAGQVDRLGERILPTRWERISRVVPATISSTVTGMTVIAIGEGLVLGIAYWLAGVPSPVTLGALTGVMALIPGGAPLSFTLVSIYLAASGSPMAGLALFLWGAVELFIVDKTLRPKLVGGPIKLPFLPTFFGLIGGVKTMGFLGLFIGPVLMALLVAIWREWLREVELVDELAAGSAAEIEATPQIEVLPEPGVAKKARA
protein production: failed

MYFLVTTLGVGFYLMKRMEKSEEDYLVAKRGLGAVPVGVTLALTVLGTPHILGVMESAYDIGLPAVWFSFAHAIMLAIVCLFTGRWARKLKVESVPEFLDVIFSNYWLRLMVGAVIAGAIFGICTLETQGLGVFVSILTGTSIEVGIVIGALIGILYVVLSGMKEVAWLNVLNAVILYIGIIAATFVLGSGLQNGWEGVNEFYISNDLAGKLNIFGSWEVFVGFALVNVLATVFFQGISQQGLHAALAAKSPDVLRKAMLIAVPVNGSFAVFAAVMGMAARATPEFAELGAKTATPAMIVSVLPTWASALLLATCLVAVLSSYAITLLAPTTIFVNDIYKAVLKPNASHEELLRLSRILTVLLAVAALIPAVSLPPILAAMMWLFSWLVPVFWFVIFGLFWKRSAPAAIITCLLVWVTINAWTMTPLPEVLGAPGWLHQVYLALIVTLVIGSLLNAVLPGKPGLFREKALAVRG
protein production: failed

MEFNLRCSESMPDFSRVGMMDEDIPNVRGRGPSQPRGFLRSQIRAPCALMKGLSDIDQEITMAFIKALAVQHQKRSLERRKIRKKINRILRRVIAISRELHTLNSHPGDWIELGISEFDRIPDCMMPILELAGQGVQLFYKSRRVS
protein production: failed

MRKDTEEVQKSSGKTRKSYVKVKKKRRKSTKQKGPEPKKLDFVKDSWQKGSLEIKKLDFIGDRWQTVSLEPKMLGFVEDPWRKGSLEPKMLDFVEDPWQKGSLEPKMLDIVEDSWQKDSFEAMKLDFAEYNWISIDNRRVSADSKRSSVDSKRSSVDSKRSSVDSKRGSIDSRKFSVDSKRDPVDNKRDSVDSKRFSVDSKRFSVDSRRVSISSKRSSIDSKRSSVDSRKSSGGTLLDFSEDRRSSGEDRDISSLARVRHSRVPWATLMRALGRFKLYLPHIRRYYNLSSRDPLALDKDFLLPREKHLKATVQKSWGNQQPLSKIPYKTLTGHDQTVSSCHFCMDDTRLLSSSYDCTVKLWDAEDGTVICDFEPRPKAPVLECSITADNRRIVASSYDKTVRAWDVETGQLLWKVRHDTFVVCCKFSPNGKYVLSALDVNRGIYLMDPENITSVIHMKAQHQRSITSCCFDPDSQKVASVSMDKSIKIWDVTSRATLFTIQEAHTNAISDCCFTFSGHFLCTSSWDRTIKIWNVHTGEFRNQGACVTLMKGHEGCVSSCCIARDSSFLISGGFDKTVAIWDVGGGYRKLSLKGHEDWVTDVAISNDKKWILSASKDNSMRLWNIEEIDKIPLVSENKRAMGLKVRQCRNCDQLFSVLESDVYSQLSNTCLFCRREKKSLSSSSSSLSLSSLERLCI
protein production: failed

MPDWVTGTWLLALDWAIRLAALLWIPARTTPGAARSWLLLIGFVPVVGLPLYLLFGHPWLSRLRVERQATASQVIREQQLPLHALRWMPQADTSSAEVVPLIEREGDFMPTLGNAVELLDDYAQSLQALIAAIDAADKRVHLLYYLMFDDAVGEAVVVALERASARGVRCRVLLDAVGAKRGLRRYRKRLQDGGVQVLAVLPGGLRWRRSGRMDLRNHRKIAVLDNRVAFVGSQNLAEAGFIDGVPNRELVARVRGPVVNHLEAVFASDWFTETGERLDVWPDAPVCEANIATQLLPSGPAYPFENARDAINAVIHLARRKVVLVTPYFVPDEALLSALRIAPVSGVDVQLILSEHNNQRLAAWAQEAYFEELLRCGVKIALYRPHFLHAKHLSMDEDIALVGSINLDIRSFALNAEIGMLCYDTGVVQRLREIEQDYLANARQLTLEQWRRRPAWRRSREGIARLADALM
protein production: failed

MVKCLSAHNKAPHVSVITPSYNSIRFIGETIVSVQNQSYENWEMIIVDDASTDESVTKIKEIIEGDSRIRLVSLKENIGAAKARNIAIQEARGRYIAFLDSDDIWLPHKLKTQLLFMEEMSVAFSYASYSLIDENGNGLNREVNVPKSVDYHCLAGNTIIGCLTVIIDREKIPHIEMPSVQPEDTALWLKLLHEGHEAKGIQQVLAKYRIVANSVSRNKIKAAFRYWKLLRDQKCLNAVQIFYYFSKYAYHAYRKNKINVVGKTQL
protein production: failed

MPERIIREDVKIGDGMMIDSDSQDDCVTKAVRTVEQKLTTEEHEIVMVYDYVSGSSGSSSTPSFTLTPYSPISYESDQEDYEDPPISPYISEAVVHSPDSTFALLWEGTSPILHFAADMRADAIPSVGDGTTSGIHIPYCFIYGEDGRYPQDCRF
protein production: failed

MCRTRPSCGRMEEKRPVDAAGAVALIGIAALLAFNQVVIKVTGGGFGPLFQAGLRSALGLVFVLIWMRLLRKPIVFPRAALMGALITGLLFTVEFMALFAALDLTSVSRVSILFYSMPVWLALGGHFLLPGERLSGMRVLGLMLAMGGVVLALLERDAAHVSLLGDALAVFAAMCWAAIALGVRLTPLGRVPAEMQLMSQLVISAPLLLVLAPLTGETLRTPGLLHWAGLLFQAVGVVGLGFLIWFRLLAVYRANGVASFSFLSPVLAVILGWLLLGEQVGPLVWLALGLVAAGIVLINRR
protein production: failed

MLIVDTILKPDRFGGIGLFSATRLPKGSLIWIHNPIVDITVTPEQYEALAPTFQALLDKHAYPRDYKAYDGVIEYNADNARFMNHSSRPNTYQDDRRVFTARDVQPGEELTCNYLFFDPRCDVSWNEEPSMNLDAPTG
protein production: failed

MGNDNVTIKLEHRVKTSADLSDYVYKYERAYTDALNNGDDIKEASESTKKELNQLIDRTDLTYSDGMYDKETGIAAIAVKDKNTGETYIAYAGTNKDADGATDFISDANIGANNSAYLKRLGDKATSFYDRVQSNGDNITVTTGHSYGDFLASRVAIELIPFFINFRKVNDSFHFCY
protein production: failed

METRAPFVIVGAFVLAAIFAVFGFVFWLHNTSGVGARTSYHVQFRDPVPGLLVGAAVLFNGIRVGEVTALALAPDDPRRVDATIAVAPSTPVRPDTKVGLDFQGLTGVPVVALEGGKQLSGSAIATTLVAEPGAGMSMTQAAREALRKVDSVLGENSGPLKDTIANFKTFSEWLAGKTEKLDGILGGVERMTGANEPVVKKVVYDLSAATGFPPPSPPLKGQLTIPESNTVVLFDSQKMLLAPGLEVPAFAGAQWSDSLPKMLQEKLIQSFENYDIAHAPMRPNDAVQPDYQLLTDIRSFQVIGEGDALRAEIAFSAKIIDKDGKLVAARLFQQASPLDKPEPAAAVSAFDKSFDTIAKELVPWAAQALASGRAEVEPAATTSRPITAPRSSGTTKGR
protein production: failed

MDVEAWLDERVPLVETHHHHHHENLYFQSHMNHGANIFGVAFNTLLGKDEPQVFATAGSNRVTVYECPRQGGMQLLHCYADPDPDEVFYTCAWSYDLKTSSPLLAAAGYRGVIRVIDVEQNEAVGNYIGHGQAINELKFHPHKLQLLLSGSKDHAIRLWNIQSHVCIAILGGVEGHRDEVLSIDFNMRGDRIVSSGMDHSLKLWCLNTPEFHHKIELSNTFSQEKSTLPFPTVTKHFPDFSTRDIHRNYVDCVQWFGNFVLSKSCENAIVCWKPGQLHQSFEQVKPSDSSCTIIAEFEYDECEIWFVRFGFNPWQKVIALGNQQGKVYVWELDPSDPEGAHMTTLHNSRSVATVRQIAFSRDASVLVYVCDDATVWRWNRRQTTSI
protein production: failed

MANTSSDWAGAPQNASADGEFVRDTNYIDDRIVADVPAGSEPIAQEDGTFHWPVEAGRYRLVAARACPWAHRTVITRRLLGLENVISLGLTGPTHDVRSWTFDLDPNHLDPVLQIPRLQDAYFNRFPDYPRGITVPALVEESSKKVVTNDYPSITIDFNLEWKQFHREGAPNLYPAELREEMAPVMKRIFTEVNNGVYRTGFAGSQEAHNEAYKRLWVALDWLEDRLSTRRYLMGDHITEADIRLYPTLVRFDAVYHGHFKCGRNKITEMPNLWGYLRDLFQTPGFGDTTDFTEIKQHYYITHAEINPTRIVPVGPDLSGFATPHGREKLGGSPFAEGVTLPGPIPAGEEVKNPEPFQK
protein production: not failed

MPDNEVDLLFAQLSPEDLIEWSDYLPESFTDRALAQMGERQRQRFELYDQYSENEIGRYTDHQMLVLSDKATVAQAQRFFRRIELDCNDNLFIVDEADKYLGTVRRYDIFKHEPHEPLISLLSEDSRALTANTTLLDAAEAIEHSREIELPVIDDAGELIGRVTLRAATALVREHYEAQLMATAGMDESDDLFAPILKGAQRRAVWLGINLLTAFLASATIGLFENVLSQVVALAVLMPIVASMGGIAGSQSLTLMIRGMAMGQISAGNLFSLMKNELGIGLVNGTLWAIVIGLVAGWWFADSIIGIVIGCAILINMAVAALAGVFVPMIL
protein production: failed

MTIVGLKKTYLGLIDKKTGKIIAGPEGLTTDGLYMSNPKDLGTASANITNIAAAGTQKFGDNGLVDVVSSKSFPQVAAVWNNLPFDIKAKIKGEVSDKKGGYVQSQDLPQVALIIESELIDRSHSIFYAFGNGHMTETALNIQTDNAAQNRVEDALTYQSLAFEAWNNQGMKTFNSADSGFDKTAMLKEVMGGYAASGLGVLEHHHHHH
protein production: failed

MLSLNQEVHGPKTSEVYGFVGSISIVVATVIFLIWGYVPDKFLESIGIYYYPSKYWAMAMPMYSMVTLLVALVFYIGLNFMSTSKPTSLNTLFDDYSREDVNFLPLMKNGEDRPIDPISDIDITRINDLMFDSHLAK
protein production: failed

MFSRKDIIVLGMMIFALFLGAGNIIFPPMEGFSSGQHWTSASLGFVLTGVLMPFITLVVVAILGRGEELTKDLPKWAGTGFLVILYLTIGSTFAMPRITNVAYEMAWLPLGLTENNANVRFVFSLIFNLIAMGFMISPNTIISSVGKFMTPALLVLLIAVAITVFISPLSEIQAPSNAYENSHSLLIGLTSGYQTMDVLAAIAFGGIVARALSAKNVTKTKDIVKYTISAGFVSVILLAGLYFSLFYLGATSAAVAEGATNGGQIFSRYVNVLFGSAGTWIMAGIIVLASLTTLVGVTSASADYFSKFSVRFSYPFWAALFTAMTITVSQYGLTDLLRITIPALLLIYPVAIVLVLLQFLRKKLPSIKFTYNSTLLVTVCFSLCDSLNNVKMLPESINSLLKHFPLSSEGMAWLVPTLVMLVASIFIGKALHKTHS
protein production: failed

MALVRSLFVSNKILGGSLAGMRKSTSAPKGFLAVYVGESQKKQRYLVLVSYLSQPLFQDLLSKSEEEFGFDHPMGGLTIPCPEDTFLTVTSRIQG
protein production: failed

MSSWMMVPVVFLTAYSDPETIGRARRAGAYGYLLKPYDDRKLRAAVETALRRYRADVRDILKVHETAVRGPVPGVLIVEDEAIIAADLKQKLENAGFRVLGVHDTGEGAIAAASELEPDVVIMDVYIRGEMDGIKAAERIQERYGIPVIYLTAYSDDATLSRILESEPYGYLLKPLNTEQLQAEIEVVLENLRTTEDYSRRVREVLVTKAEEMKIEKTGIFFVSSVITALAVYGFITGSMTWLMYTLFIPTVYSLMHLAFSFGEPEKPSSSAMPMVSIIVPANNEENTIEGCVETLSALDYHVNGERNYEIIVVNDGSTDRTGEILEGLLRKHRHLKAVTRKAPFAFNGRVMPSMMVSPLPRGIL
protein production: failed
